From patent US11833164B2, “Methods of treating Fabry disease in patients having a mutation in the GLA gene” (Amicus Therapeutics, Inc., priority 2019, dated 2023)

B1: A181P (protein)
chain: MQLRNPELHLGCALALRFLALVSWDIPGARALDNGLARTPTMGWLHWERFMCNLDCQEEPDSCISEKLFMEMAELMVSEGWKDAGYEYLCIDDCWMAPQRDSEGRLQADPQRFPHGIRQLANYVHSKGLKLGIYADVGNKTCAGFPGSFGYYDIDAQTFADWGVDLLKFDGCYCDSLENLPDGYKHMSLALNRTGRSIVYSCEWPLYMWPFQKPNYTEIRQYCNHWRNFADIDDSWKSIKSILDWTSFNQERIVDVAGPGGWNDPDMLVIGNFGLSWNQQVTQMALWAIMAAPLFMSNDLRHISPQAKALLQDKDVIAINQDPLGKQGYQLRQGDNFEVWERPLSGLAWAVAMINRQEIGGPRSYTIAVASLGKGVACNPACFITQLLPVKRKLGFYEWTSRLRSHINPTGTVLLQLENTMQMSLKDLL
B2: Y184F (protein)
chain: MQLRNPELHLGCALALRFLALVSWDIPGARALDNGLARTPTMGWLHWERFMCNLDCQEEPDSCISEKLFMEMAELMVSEGWKDAGYEYLCIDDCWMAPQRDSEGRLQADPQRFPHGIRQLANYVHSKGLKLGIYADVGNKTCAGFPGSFGYYDIDAQTFADWGVDLLKFDGCYCDSLENLADGFKHMSLALNRTGRSIVYSCEWPLYMWPFQKPNYTEIRQYCNHWRNFADIDDSWKSIKSILDWTSFNQERIVDVAGPGGWNDPDMLVIGNFGLSWNQQVTQMALWAIMAAPLFMSNDLRHISPQAKALLQDKDVIAINQDPLGKQGYQLRQGDNFEVWERPLSGLAWAVAMINRQEIGGPRSYTIAVASLGKGVACNPACFITQLLPVKRKLGFYEWTSRLRSHINPTGTVLLQLENTMQMSLKDLL
B3: D182V (protein)
chain: MQLRNPELHLGCALALRFLALVSWDIPGARALDNGLARTPTMGWLHWERFMCNLDCQEEPDSCISEKLFMEMAELMVSEGWKDAGYEYLCIDDCWMAPQRDSEGRLQADPQRFPHGIRQLANYVHSKGLKLGIYADVGNKTCAGFPGSFGYYDIDAQTFADWGVDLLKFDGCYCDSLENLAVGYKHMSLALNRTGRSIVYSCEWPLYMWPFQKPNYTEIRQYCNHWRNFADIDDSWKSIKSILDWTSFNQERIVDVAGPGGWNDPDMLVIGNFGLSWNQQVTQMALWAIMAAPLFMSNDLRHISPQAKALLQDKDVIAINQDPLGKQGYQLRQGDNFEVWERPLSGLAWAVAMINRQEIGGPRSYTIAVASLGKGVACNPACFITQLLPVKRKLGFYEWTSRLRSHINPTGTVLLQLENTMQMSLKDLL
B4: Y184H (protein)
chain: MQLRNPELHLGCALALRFLALVSWDIPGARALDNGLARTPTMGWLHWERFMCNLDCQEEPDSCISEKLFMEMAELMVSEGWKDAGYEYLCIDDCWMAPQRDSEGRLQADPQRFPHGIRQLANYVHSKGLKLGIYADVGNKTCAGFPGSFGYYDIDAQTFADWGVDLLKFDGCYCDSLENLADGHKHMSLALNRTGRSIVYSCEWPLYMWPFQKPNYTEIRQYCNHWRNFADIDDSWKSIKSILDWTSFNQERIVDVAGPGGWNDPDMLVIGNFGLSWNQQVTQMALWAIMAAPLFMSNDLRHISPQAKALLQDKDVIAINQDPLGKQGYQLRQGDNFEVWERPLSGLAWAVAMINRQEIGGPRSYTIAVASLGKGVACNPACFITQLLPVKRKLGFYEWTSRLRSHINPTGTVLLQLENTMQMSLKDLL
B5: D182Y (protein)
chain: MQLRNPELHLGCALALRFLALVSWDIPGARALDNGLARTPTMGWLHWERFMCNLDCQEEPDSCISEKLFMEMAELMVSEGWKDAGYEYLCIDDCWMAPQRDSEGRLQADPQRFPHGIRQLANYVHSKGLKLGIYADVGNKTCAGFPGSFGYYDIDAQTFADWGVDLLKFDGCYCDSLENLAYGYKHMSLALNRTGRSIVYSCEWPLYMWPFQKPNYTEIRQYCNHWRNFADIDDSWKSIKSILDWTSFNQERIVDVAGPGGWNDPDMLVIGNFGLSWNQQVTQMALWAIMAAPLFMSNDLRHISPQAKALLQDKDVIAINQDPLGKQGYQLRQGDNFEVWERPLSGLAWAVAMINRQEIGGPRSYTIAVASLGKGVACNPACFITQLLPVKRKLGFYEWTSRLRSHINPTGTVLLQLENTMQMSLKDLL
B6: A181T (protein)
chain: MQLRNPELHLGCALALRFLALVSWDIPGARALDNGLARTPTMGWLHWERFMCNLDCQEEPDSCISEKLFMEMAELMVSEGWKDAGYEYLCIDDCWMAPQRDSEGRLQADPQRFPHGIRQLANYVHSKGLKLGIYADVGNKTCAGFPGSFGYYDIDAQTFADWGVDLLKFDGCYCDSLENLTDGYKHMSLALNRTGRSIVYSCEWPLYMWPFQKPNYTEIRQYCNHWRNFADIDDSWKSIKSILDWTSFNQERIVDVAGPGGWNDPDMLVIGNFGLSWNQQVTQMALWAIMAAPLFMSNDLRHISPQAKALLQDKDVIAINQDPLGKQGYQLRQGDNFEVWERPLSGLAWAVAMINRQEIGGPRSYTIAVASLGKGVACNPACFITQLLPVKRKLGFYEWTSRLRSHINPTGTVLLQLENTMQMSLKDLL
B7: D182E (protein)
chain: MQLRNPELHLGCALALRFLALVSWDIPGARALDNGLARTPTMGWLHWERFMCNLDCQEEPDSCISEKLFMEMAELMVSEGWKDAGYEYLCIDDCWMAPQRDSEGRLQADPQRFPHGIRQLANYVHSKGLKLGIYADVGNKTCAGFPGSFGYYDIDAQTFADWGVDLLKFDGCYCDSLENLAEGYKHMSLALNRTGRSIVYSCEWPLYMWPFQKPNYTEIRQYCNHWRNFADIDDSWKSIKSILDWTSFNQERIVDVAGPGGWNDPDMLVIGNFGLSWNQQVTQMALWAIMAAPLFMSNDLRHISPQAKALLQDKDVIAINQDPLGKQGYQLRQGDNFEVWERPLSGLAWAVAMINRQEIGGPRSYTIAVASLGKGVACNPACFITQLLPVKRKLGFYEWTSRLRSHINPTGTVLLQLENTMQMSLKDLL
B8: A181V (protein)
chain: MQLRNPELHLGCALALRFLALVSWDIPGARALDNGLARTPTMGWLHWERFMCNLDCQEEPDSCISEKLFMEMAELMVSEGWKDAGYEYLCIDDCWMAPQRDSEGRLQADPQRFPHGIRQLANYVHSKGLKLGIYADVGNKTCAGFPGSFGYYDIDAQTFADWGVDLLKFDGCYCDSLENLVDGYKHMSLALNRTGRSIVYSCEWPLYMWPFQKPNYTEIRQYCNHWRNFADIDDSWKSIKSILDWTSFNQERIVDVAGPGGWNDPDMLVIGNFGLSWNQQVTQMALWAIMAAPLFMSNDLRHISPQAKALLQDKDVIAINQDPLGKQGYQLRQGDNFEVWERPLSGLAWAVAMINRQEIGGPRSYTIAVASLGKGVACNPACFITQLLPVKRKLGFYEWTSRLRSHINPTGTVLLQLENTMQMSLKDLL
B9: D182A (protein)
chain: MQLRNPELHLGCALALRFLALVSWDIPGARALDNGLARTPTMGWLHWERFMCNLDCQEEPDSCISEKLFMEMAELMVSEGWKDAGYEYLCIDDCWMAPQRDSEGRLQADPQRFPHGIRQLANYVHSKGLKLGIYADVGNKTCAGFPGSFGYYDIDAQTFADWGVDLLKFDGCYCDSLENLAAGYKHMSLALNRTGRSIVYSCEWPLYMWPFQKPNYTEIRQYCNHWRNFADIDDSWKSIKSILDWTSFNQERIVDVAGPGGWNDPDMLVIGNFGLSWNQQVTQMALWAIMAAPLFMSNDLRHISPQAKALLQDKDVIAINQDPLGKQGYQLRQGDNFEVWERPLSGLAWAVAMINRQEIGGPRSYTIAVASLGKGVACNPACFITQLLPVKRKLGFYEWTSRLRSHINPTGTVLLQLENTMQMSLKDLL

System: mutant form of α-Gal A expressed in HEK-293 cells
Experiment: HEK assay (GLP HEK / Migalastat Amenability Assay): α-Gal A activity in lysates of transiently transfected HEK-293 cells incubated with or without 10 μM migalastat
Type: cell-based, human
Details: for Absolute increase (% WT): 10 μM migalastat versus baseline; for Relative increase: 10 μM migalastat α-Gal A activity relative to baseline; for 10 μM migalastat α-Gal A activity (% WT): 5 days; for 10 μM migalastat α-Gal A activity (% WT) / Baseline α-Gal A activity (% WT): percentage of baseline wild-type α-Gal A activity; for 10 μM migalastat α-Gal A activity (% WT) / Baseline α-Gal A activity (% WT) / Baseline α-Gal A activity / 10 μM migalastat α-Gal A activity: mean ± SEM; for Baseline α-Gal A activity (% WT): absence of migalastat; for Baseline α-Gal A activity / 10 μM migalastat α-Gal A activity: lysates of HEK-293 cells transfected with the mutant form; for Baseline α-Gal A activity: incubated 5 days in the absence of migalastat; for 10 μM migalastat α-Gal A activity: incubated 5 days with 10 μM migalastat
Procedure, shortened: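 Activity reported as 4-MU released (nmol/mg/hr), mean±SEM, from lysates of transiently transfected HEK-293 cells expressing mutant α-Gal A, cultured with or without 10 μM migalastat.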

Molecule | Absolute increase (% WT) | Relative increase | 10 μM migalastat α-Gal A activity (% WT) | Baseline α-Gal A activity (% WT) | Baseline α-Gal A activity | 10 μM migalastat α-Gal A activity
B1 | 29.8 % WT | 1.9 | 61.5 ± 3.3 % WT | 31.7 ± 2 % WT | 10948 ± 725 nmol/mg/h | 21274 ± 1279 nmol/mg/h
B2 | 31.8 % WT | 1.4 | 109.7 ± 5.8 % WT | 77.9 ± 4.4 % WT | 26088 ± 1334 nmol/mg/h | 36815 ± 2009 nmol/mg/h
B3 | 44.7 % WT | 1.6 | 124.8 ± 6.9 % WT | 80.2 ± 4.2 % WT | 26881 ± 2166 nmol/mg/h | 42107 ± 3524 nmol/mg/h
B4 | 18.4 % WT | 1.6 | 48.6 ± 3.5 % WT | 30.2 ± 2.9 % WT | 10980 ± 867 nmol/mg/h | 17894 ± 1145 nmol/mg/h
B5 | 31.9 % WT | 1.4 | 116.5 ± 6.4 % WT | 84.7 ± 4.1 % WT | 28377 ± 2226 nmol/mg/h | 39247 ± 3250 nmol/mg/h
B6 | 19.2 % WT | 1.4 | 71.3 ± 4.6 % WT | 52.1 ± 2.7 % WT | 17946 ± 1002 nmol/mg/h | 24490 ± 1576 nmol/mg/h
B7 | 32.3 % WT | 1.4 | 117.1 ± 4.5 % WT | 84.8 ± 4 % WT | 28082 ± 2023 nmol/mg/h | 38956 ± 2806 nmol/mg/h
B8 | 14.2 % WT | 1.2 | 93.2 ± 5.3 % WT | 79.1 ± 3.5 % WT | 26667 ± 1945 nmol/mg/h | 32358 ± 2863 nmol/mg/h
B9 | 31.8 % WT | 1.3 | 133.3 ± 8.2 % WT | 101.5 ± 5.7 % WT | 33673 ± 2886 nmol/mg/h | 44436 ± 3828 nmol/mg/h
